Data set [1] deals with Prp43 (Saccharomyces cerevisiae, UniProt P53131, F357A). The experiment in a line: ITC. It is filed as binding.
The target of data set [2] is T1, Prp43 (Saccharomyces cerevisiae, UniProt P53131). In words: ITC. Format: binding.
In data set [3] the target is T1, Prp43. In words: ITC. Format: binding. The source holds these as a separate data set.
In data set [4] the target is T2, Prp43 (UniProt P53131 1-767). In words: filter binding.
Data set [5] has as its target T3, Prp43 R159A (UniProt P53131 1-767, R159A). In words: filter binding.
The target of data set [6] is T4, Prp43 F357A (UniProt P53131 1-767, F357A). The experiment in a line: filter binding.
The target in data set [7] is T3, Prp43 R159A. In words: filter binding. This is another data set of the same source.
Data set [8] has as its target T3, Prp43 R159A. The experiment in a line: filter binding. The source holds these as a separate data set.
The target of data set [9] is T4, Prp43 F357A. In words: filter binding. This is another data set of the same source.
Data set [10] has as its target T2, Prp43. The experiment in a line: filter binding. The source holds these as a separate data set.
Data set [11] deals with T3, Prp43 R159A. The experiment in a line: filter binding. This is another data set of the same source.
For data set [12], the target named is T4, Prp43 F357A. The experiment in a line: filter binding. The source holds these as a separate data set.

We go through three molecules from paper PMC5388414 (Nucleic Acids Research, 2016).

Read-outs that look alike come from different tables or passages of the source. Where only a bound is given, the exact number is not on record here.

In the case of `Nc1ncnc2c1ncn2[C@@H]1O[C@H](COP(=O)(O)OP(=O)(O)O)[C@@H](O)[C@H]1O` [ADP], the equilibrium dissociation constant (Kd) on Prp43 [1] is over 45000 nM; at Prp43 [2], 1450 nM.
Take `Nc1ccn([C@@H]2O[C@H](COP(=O)(O)OP(=O)(O)O)[C@@H](O)[C@H]2O)c(=O)n1` [CDP]: on Prp43 [3], the dissociation constant Kd was over 25000 nM.

B1: 21-mer ssRNA (ssRNA)
RNA: GACGGGCUGUUGGUGAUGGAC
For B1, the equilibrium dissociation constant (Kd) was 42 ± 17 nM in the data set with Prp43 [4]; 20 ± 4 nM with Prp43 R159A [5]; 14 ± 1 nM with Prp43 F357A [6]; 18 ± 2 nM with Prp43 R159A [7]; 8 ± 1 nM with Prp43 R159A [8]; 43 ± 3 nM with Prp43 F357A [9]. Further, the Kd in the data set with Prp43 [10] was determined as 8 ± 3 nM; with Prp43 R159A [11], 3 ± 0.8 nM; with Prp43 F357A [12], 6 ± 1 nM.

The term Kd denotes a measure of binding affinity in units of concentration. A low value points to a tighter complex.
